Measured values as given in patent US12099068B2, “Biomarkers for graft-versus-host disease” (Incyte Corporation, priority 2018, dated 2024).

system: plasma proteins; assay: Plasma proteins modulated between baseline and day 28 in responders (CR, VGPR, PR; n = 19), Example 6 (Table 13); assay type: in vivo, human; settings: plasma protein (OLINK NPX); responders (CR, VGPR, PR; n = 19); itacitinib 200 mg or 300 mg QD with corticosteroids; day 28 vs baseline
Method in brief: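 Plasma at baseline/screening and day 28 profiled for >1000 proteins by OLINK proximity extension assay, reported as NPX (log2). Steroid-naive and steroid-refractory patients pooled. Paired and unpaired t tests, ANOVA and Pearson correlation applied; significance at P<0.05.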

Row | Molecule | Fold Change, Decreased Expression from Baseline to Day 28 | Fold Change, Increased Expression from Baseline to Day 28
1 | FCGR2A (protein, UniProt P12318 34-317, looked up) Low affinity immunoglobulin …: QAAAPPKAVLKLEPPWINVLQEDSVTLTCQGARSPESDSIQWFHNGNLIPTHTQPSYRFKANNNDSGEYTCQTGQTSLSDPVHLTVLSEWLVLQTPHLEFQEGETIMLRCHSWKDKPLVKVTFFQNGKSQKFSHLDPTFSIPQANHSHSGDYHCTGNIGYTLFSSKPVTITVQVPSMGSSSPMGIIVAVVIATAVAAIVAAVVALIYCRKKRISANSTDPVKAAQFEPPGRQMIAIRKRQLEETNNDYETADGGYMTLNPRAPTDDDKNIYLTLPPNDHVNSNN | −1.5278 | 
2 | Ep-CAM (protein, UniProt P16422 24-314, looked up) Epithelial cell adhesion …: QEECVCENYKLAVNCFVNNNRQCQCTSVGAQNTVICSKLAAKCLVMKAEMNGSKLGRRAKPEGALQNNDGLYDPDCDESGLFKAKQCNGTSMCWCVNTAGVRRTDKDTEITCSERVRTYWIIIELKHKAREKPYDSKSLRTALQKEITTRYQLDPKFITSILYENNVITIDLVQNSSQKTQNDVDIADVAYYFEKDVKGESLFHSKKMDLTVNGEQLDLDPGQTLIYYVDEKAPEFSMQGLKAGVIAVIVVVVIAVVAGIVVLVISRKKRMAKYEKAEIKEMGEMHRELNA |  | 1.403
3 | NBN (protein, UniProt O60934 1-754, looked up) Nibrin: MWKLLPAAGPAGGEPYRLLTGVEYVVGRKNCAILIENDQSISRNHAVLTANFSVTNLSQTDEIPVLTLKDNSKYGTFVNEEKMQNGFSRTLKSGDGITFGVFGSKFRIEYEPLVACSSCLDVSGKTALNQAILQLGGFTVNNWTEECTHLVMVSVKVTIKTICALICGRPIVKPEYFTEFLKAVESKKQPPQIESFYPPLDEPSIGSKNVDLSGRQERKQIFKGKTFIFLNAKQHKKLSSAVVFGGGEARLITEENEEEHNFFLAPGTCVVDTGITNSQTLIPDCQKKWIQSIMDMLQRQGLRPIPEAEIGLAVIFMTTKNYCDPQGHPSTGLKTTTPGPSLSQGVSVDEKLMPSAPVNTTTYVADTESEQADTWDLSERPKEIKVSKMEQKFRMLSQDAPTVKESCKTSSNNNSMVSNTLAKMRIPNYQLSPTKLPSINKSKDRASQQQQTNSIRNYFQPSTKKRERDEENQEMSSCKSARIETSCSLLEQTQPATPSLWKNKEQHLSENEPVDTNSDNNLFTDTDLKSIVKNSASKSHAAEKLRSNKKREMDDVAIEDEVLEQLFKDTKPELEIDVKVQKQEEDVNVRKRPRMDIETNDTFSDEAVPESSKISQENEIGKKRELKEDSLWSAKEISNNDKLQDDSEMLPKKLLLTEFRSLVIKNSTSRNPSGINDDYGQLKNFKKFKKVTYPGAGKLPHIIGGSDLIAHHARKNTELEEWLRQEMEVQNQHAKEESLADDLFRYNPYLKRRR | −1.5879 | 
4 | NEP (protein, UniProt P08473 2-750, looked up) Neprilysin: GKSESQMDITDINTPKPKKKQRWTPLEISLSVLVLLLTIIAVTMIALYATYDDGICKSSDCIKSAARLIQNMDATTEPCTDFFKYACGGWLKRNVIPETSSRYGNFDILRDELEVVLKDVLQEPKTEDIVAVQKAKALYRSCINESAIDSRGGEPLLKLLPDIYGWPVATENWEQKYGASWTAEKAIAQLNSKYGKKVLINLFVGTDDKNSVNHVIHIDQPRLGLPSRDYYECTGIYKEACTAYVDFMISVARLIRQEERLPIDENQLALEMNKVMELEKEIANATAKPEDRNDPMLLYNKMTLAQIQNNFSLEINGKPFSWLNFTNEIMSTVNISITNEEDVVVYAPEYLTKLKPILTKYSARDLQNLMSWRFIMDLVSSLSRTYKESRNAFRKALYGTTSETATWRRCANYVNGNMENAVGRLYVEAAFAGESKHVVEDLIAQIREVFIQTLDDLTWMDAETKKRAEEKALAIKERIGYPDDIVSNDNKLNNEYLELNYKEDEYFENIIQNLKFSQSKQLKKLREKVDKDEWISGAAVVNAFYSSGRNQIVFPAGILQPPFFSAQQSNSLNYGGIGMVIGHEITHGFDDNGRNFNKDGDLVDWWTQQSASNFKEQSQCMVYQYGNFSWDLAGGQHLNGINTLGENIADNGGLGQAYRAYQNYIKKNGEEKLLPGLDLNHKQLFFLNFAQVWCGTYRPEYAVNSIKTDVHSPGNFRIIGTLQNSAEFSEAFHCRKNSYMNPEKKCRVW |  | 1.8376
5 | GRAP2 (protein, UniProt O75791 1-330, looked up) GRB2-related adapter protein 2: MEAVAKFDFTASGEDELSFHTGDVLKILSNQEEWFKAELGSQEGYVPKNFIDIQFPKWFHEGLSRHQAENLLMGKEVGFFIIRASQSSPGDFSISVRHEDDVQHFKVMRDNKGNYFLWTEKFPSLNKLVDYYRTNSISRQKQIFLRDRTREDQGHRGNSLDRRSQGGPHLSGAVGEEIRPSMNRKLSDHPPTLPLQQHQHQPQPPQYAPAPQQLQQPPQQRYLQHHHFHQERRGGSLDINDGHCGTGLGSEMNAALMHRRHTDPVQLQAAGRVRWARALYDFEALEDDELGFHSGEVVEVLDSSNPSWWTGRLHNKLGLFPANYVAPMTR | −1.6468 | 
6 | ST1A1 (protein, UniProt P50225 1-295, looked up) Sulfotransferase 1A1: MELIQDTSRPPLEYVKGVPLIKYFAEALGPLQSFQARPDDLLISTYPKSGTTWVSQILDMIYQGGDLEKCHRAPIFMRVPFLEFKAPGIPSGMETLKDTPAPRLLKTHLPLALLPQTLLDQKVKVVYVARNAKDVAVSYYHFYHMAKVHPEPGTWDSFLEKFMVGEVSYGSWYQHVQEWWELSRTHPVLYLFYEDMKENPKREIQKILEFVGRSLPEETVDFVVQHTSFKEMKKNPMTNYTTVPQEFMDHSISPFMRKGMAGDWKTTFTVAQNERFDADYAEKMAGCSLSFRSEL | −1.9523 | 
7 | DKKL1 (protein, UniProt Q9UK85 31-242, looked up) Dickkopf-like protein 1: APIHDADAQESSLGLTGLQSLLQGFSRLFLKGNLLRGIDSLFSAPMDFRGLPGNYHKEENQEHQLGNNTLSSHLQIDKMTDNKTGEVLISENVVASIQPAEGSFEGDLKVPRMEEKEALVPIQKATDSFHTELHPRVAFWIIKLPRRRSHQDALEGGHWLSEKRHRLQAIRDGLRKGTHKDVLEEGTESSSHSRLSPRKTHLLYILRPSRQL |  | 1.1495
8 | CD93 (protein, UniProt Q9NPY3 22-652, looked up) Complement component C1q …: TGADTEAVVCVGTACYTAHSGKLSAAEAQNHCNQNGGNLATVKSKEEAQHVQRVLAQLLRREAALTARMSKFWIGLQREKGKCLDPSLPLKGFSWVGGGEDTPYSNWHKELRNSCISKRCVSLLLDLSQPLLPSRLPKWSEGPCGSPGSPGSNIEGFVCKFSFKGMCRPLALGGPGQVTYTTPFQTTSSSLEAVPFASAANVACGEGDKDETQSHYFLCKEKAPDVFDWGSSGPLCVSPKYGCNFNNGGCHQDCFEGGDGSFLCGCRPGFRLLDDLVTCASRNPCSSSPCRGGATCVLGPHGKNYTCRCPQGYQLDSSQLDCVDVDECQDSPCAQECVNTPGGFRCECWVGYEPGGPGEGACQDVDECALGRSPCAQGCTNTDGSFHCSCEEGYVLAGEDGTQCQDVDECVGPGGPLCDSLCFNTQGSFHCGCLPGWVLAPNGVSCTMGPVSLGPPSGPPDEEDKGEKEGSTVPRAATASPTRGPEGTPKATPTTSRPSLSSDAPITSAPLKMLAPSGSPGVWREPSIHHATAASGPQEPAGGDSSVATQNNDGTDGQKLLLFYILGTVVAILLLLALALGLLVYRKRRAKREEKKEKKPQNAADSYSWVPERAESRAMENQYSPTPGTDC | −1.3029 | 
9 | GPNMB (protein, UniProt Q14956 23-572, looked up) Transmembrane glycoprotein NMB: KRFHDVLGNERPSAYMREHNQLNGWSSDENDWNEKLYPVWKRGDMRWKNSWKGGRVQAVLTSDSPALVGSNITFAVNLIFPRCQKEDANGNIVYEKNCRNEAGLSADPYVYNWTAWSEDSDGENGTGQSHHNVFPDGKPFPHHPGWRRWNFIYVFHTLGQYFQKLGRCSVRVSVNTANVTLGPQLMEVTVYRRHGRAYVPIAQVKDVYVVTDQIPVFVTMFQKNDRNSSDETFLKDLPIMFDVLIHDPSHFLNYSTINYKWSFGDNTGLFVSTNHTVNHTYVLNGTFSLNLTVKAAAPGPCPPPPPPPRPSKPTPSLATTLKSYDSNTPGPAGDNPLELSRIPDENCQINRYGHFQATITIVEGILEVNIIQMTDVLMPVPWPESSLIDFVVTCQGSIPTEVCTIISDPTCEITQNTVCSPVDVDEMCLLTVRRTFNGSGTYCVNLTLGDDTSLALTSTLISVPDRDPASPLRMANSALISVGCLAIFVTVISLLVYKKHKEYNPIENSPGNVVRSKGLSVFLNRAKAVFFPGNQEKDPLLKNQEFKGVS |  | 1.2117
10 | CPA2 (protein, UniProt P48052 115-419, looked up) Carboxypeptidase A2: SGNFNFGAYHTLEEISQEMDNLVAEHPGLVSKVNIGSSFENRPMNVLKFSTGGDKPAIWLDAGIHAREWVTQATALWTANKIVSDYGKDPSITSILDALDIFLLPVTNPDGYVFSQTKNRMWRKTRSKVSGSLCVGVDPNRNWDAGFGGPGASSNPCSDSYHGPSANSEVEVKSIVDFIKSHGKVKAFITLHSYSQLLMFPYGYKCTKLDDFDELSEVAQKAAQSLRSLHGTKYKVGPICSVIYQASGGSIDWSYDYGIKYSFAFELRDTGRYGFLLPARQILPTAEETWLGLKAIMEHVRDHPY |  | 1.7185
11 | FOXO1 (protein, UniProt Q12778 1-655, looked up) Forkhead box protein O1: MAEAPQVVEIDPDFEPLPRPRSCTWPLPRPEFSQSNSATSSPAPSGSAAANPDAAAGLPSASAAAVSADFMSNLSLLEESEDFPQAPGSVAAAVAAAAAAAATGGLCGDFQGPEAGCLHPAPPQPPPPGPLSQHPPVPPAAAGPLAGQPRKSSSSRRNAWGNLSYADLITKAIESSAEKRLTLSQIYEWMVKSVPYFKDKGDSNSSAGWKNSIRHNLSLHSKFIRVQNEGTGKSSWWMLNPEGGKSGKSPRRRAASMDNNSKFAKSRSRAAKKKASLQSGQEGAGDSPGSQFSKWPASPGSHSNDDFDNWSTFRPRTSSNASTISGRLSPIMTEQDDLGEGDVHSMVYPPSAAKMASTLPSLSEISNPENMENLLDNLNLLSSPTSLTVSTQSSPGTMMQQTPCYSFAPPNTSLNSPSPNYQKYTYGQSSMSPLPQMPIQTLQDNKSSYGGMSQYNCAPGLLKELLTSDSPPHNDIMTPVDPGVAQPNSRVLGQNVMMGPNSVMSTYGSQASHNKMMNPSSHTHPGHAQQTSAVNGRPLPHTVSTMPHTSGMNRLTQVKTPVQVPLPHPMQMSALGGYSSVSSCNGYGRMGLLHQEKLPSDLDGMFIERLDCDMESIIRNDLMDGDTLDFNFDNVLPNQSFPHSVKTTTHSWVSG | −1.3557 | 
